The source of these data is patent US20210300999A1.

Assay [1] concerns the target recombinant receptor binding domain (RBD) of SARS-CoV-2 spike protein, residues 319-528, deglycosylated (SARS-CoV-2) (UniProt P0DTC2). Kind of assay: crystal structure RBD/COV2-2196.
Assay [2] addresses SARS-CoV S2Pecto (SARS-CoV) (UniProt P59594). Kind of assay: ELISA on coated antigen. On the technique in general: An ELISA detects its analyte on a solid surface through an enzyme-linked reagent.
The target in assay [3] is recombinant receptor binding domain (RBD) of SARS-CoV-2 spike protein, residues 319-528, deglycosylated (SARS-CoV-2) (UniProt P0DTC2). Kind of assay: crystal structure RBD/COV2-2196/COV2-2130.

By EC50 is commonly meant the concentration at which the effect is half-maximal.

COV2-2196 Fab (recombinant, wt sequence), sequence (VH): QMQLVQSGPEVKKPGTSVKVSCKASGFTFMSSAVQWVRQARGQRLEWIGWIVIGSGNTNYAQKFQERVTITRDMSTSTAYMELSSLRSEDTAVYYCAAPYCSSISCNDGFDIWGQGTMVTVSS
COV2-2196 Fab (recombinant, wt sequence), sequence (VL): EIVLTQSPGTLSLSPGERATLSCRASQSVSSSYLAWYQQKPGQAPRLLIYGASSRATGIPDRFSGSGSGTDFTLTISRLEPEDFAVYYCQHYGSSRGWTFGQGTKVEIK

Turning to “COV2-2196 Fab (recombinant, wt sequence)”, in assay [1], the buried surface area of the interface turned out to be 650 Å^2.

“rCR3022 (recombinant form of the cross-reactive SARS-CoV SRBD mAb CR3022) (antibody)”: the EC50 in assay [2] came to 5.2 ng/mL.

Take “COV2-2196 Fab (recombinant, first two amino acids of the variable region mutated from QM to EV)”: the buried surface area of the interface in assay [3] turned out to be 650 Å^2.

Turning to COV2-2094 (antibody), in assay [2], the EC50 was 11.7 ng/mL.
